Laboratory results taken from patent publication US20260137802A1 (CRISPR THERAPEUTICS, published 2026).

B1: P-0031 (Fc fusion)
chain: EVQLVESGGGLVRAGGSLRLSCAASGRTFTYDARAWFRQAPGKEREFVAAISWSGGSTYYPNSMKGRFTISRDNAKNTVYLQMNSLKPEDTAVYYCAADESFPAYYSDYALYRYWGQGTLVTVSS
notes: Any second Fc chain without VHH is not described in the text; also called monovalent form of P31; not shown: Fc fragment
B2: P-0035 (Fc fusion)
chain: QVQLVESGGGLVQAGGSLRLSCAASGGTFSIYPVGWFRQAPGKQREFVAAIGWSASGTYYGDSVEGRFTVSRDNARSTVYLRMSSLKPDDTAVYYCAAASGSNWRLGAIDEYDSWGQGTQVTVSS
notes: Any second Fc chain without VHH is not described in the text; also called monovalent form of P35; not shown: Fc fragment
B3: P-0037 (Fc fusion)
chain: QVQLVESGGGLVQAGDSLRLSCAVSGRTLSNYFMAWLRQAPGKEREFVAAIHWSLGSTYYQDPVKGRFTISRDKAKNTVYLQMNTLKPEDTATYICAAGQHLSGLGGSAWSIEGDYWGQGTQVTVSS
notes: Any second Fc chain without VHH is not described in the text; also called monovalent form of P37; not shown: Fc fragment
B4: P-0038 (Fc fusion)
chain: EVQLVESGGGLVQAGGSLRLSCAASGRTSGSYVMGWFRQAPGKEREFVAAISWSAGMTYYADSVKGRFTISRDNAKNTVYLQMNSLKPEDTAVYYCAADQRGVPAYYSDYALYDYWGQGTQVTVSS
notes: Any second Fc chain without VHH is not described in the text; also called monovalent form of P38; not shown: Fc fragment
B5: P29 (VHH)
VHH: QVHLVESGGGLVQAGGSLGLSCAASGHTFSNYAMGWFRQAPGKEREFVAAISWSGGSTLYADSVKGRFTISRDNGENTVYLQMNSLKPEDTAVYYCALDSTGVYGTGYVSSRKGRYEYWGQGTLVTVSS
notes: also called P29/P54; anti-CD117 VHH P29
B6: P37 (VHH)
VHH: B3 chain
notes: also called P37/P58; anti-CD117 VHH P37

Molecular target: T1, human CD117 on cells (SKMEL-3 cells, CD34+ HSC) (human, UniProt P10721 26-976)
T1 construct: whole, on cells; also called CD117 on cell surfaces; CD117+ cells
T1 sequence (P10721 26-976): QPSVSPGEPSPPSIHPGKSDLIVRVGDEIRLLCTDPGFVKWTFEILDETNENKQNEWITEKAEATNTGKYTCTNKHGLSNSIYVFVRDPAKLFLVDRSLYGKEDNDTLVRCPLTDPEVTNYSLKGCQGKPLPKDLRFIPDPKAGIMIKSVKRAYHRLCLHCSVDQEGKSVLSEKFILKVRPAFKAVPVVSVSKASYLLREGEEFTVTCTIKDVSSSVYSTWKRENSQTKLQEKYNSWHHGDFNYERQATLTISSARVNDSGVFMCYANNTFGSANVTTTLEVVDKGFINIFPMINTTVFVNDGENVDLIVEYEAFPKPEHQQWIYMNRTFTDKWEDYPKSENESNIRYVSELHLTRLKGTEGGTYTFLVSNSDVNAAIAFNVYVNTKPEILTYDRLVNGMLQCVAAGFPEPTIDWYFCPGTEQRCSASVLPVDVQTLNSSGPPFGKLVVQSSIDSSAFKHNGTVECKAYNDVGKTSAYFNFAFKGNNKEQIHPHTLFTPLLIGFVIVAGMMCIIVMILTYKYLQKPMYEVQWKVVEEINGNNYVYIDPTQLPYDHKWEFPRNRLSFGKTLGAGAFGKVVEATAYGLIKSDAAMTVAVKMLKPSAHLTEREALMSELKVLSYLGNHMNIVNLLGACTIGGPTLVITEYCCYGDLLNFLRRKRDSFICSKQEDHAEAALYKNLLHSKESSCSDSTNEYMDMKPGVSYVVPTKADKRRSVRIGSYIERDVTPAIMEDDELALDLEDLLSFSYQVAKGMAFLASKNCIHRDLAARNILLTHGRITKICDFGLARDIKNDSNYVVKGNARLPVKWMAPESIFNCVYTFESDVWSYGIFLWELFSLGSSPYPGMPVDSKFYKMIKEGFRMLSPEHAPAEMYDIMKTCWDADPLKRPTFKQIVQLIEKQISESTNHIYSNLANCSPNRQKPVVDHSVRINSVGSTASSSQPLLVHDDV
Assay: flow cytometry, skMEL-3 cells, monomeric Fc

EC50	Binder
3 nM	B1
10 nM	B2
20 nM	B3
10 nM	B4

Molecular target: T2, human CD117 ectodomain (human, UniProt P10721 26-524, biotinylated (BirA co-expression) where captured on streptavidin biosensors)
T2 construct: extracellular domain; also called cKIT; full length AviTagged CD117 ectodomain; not shown: C-terminal AviTag or His tag
T2 sequence (P10721 26-524): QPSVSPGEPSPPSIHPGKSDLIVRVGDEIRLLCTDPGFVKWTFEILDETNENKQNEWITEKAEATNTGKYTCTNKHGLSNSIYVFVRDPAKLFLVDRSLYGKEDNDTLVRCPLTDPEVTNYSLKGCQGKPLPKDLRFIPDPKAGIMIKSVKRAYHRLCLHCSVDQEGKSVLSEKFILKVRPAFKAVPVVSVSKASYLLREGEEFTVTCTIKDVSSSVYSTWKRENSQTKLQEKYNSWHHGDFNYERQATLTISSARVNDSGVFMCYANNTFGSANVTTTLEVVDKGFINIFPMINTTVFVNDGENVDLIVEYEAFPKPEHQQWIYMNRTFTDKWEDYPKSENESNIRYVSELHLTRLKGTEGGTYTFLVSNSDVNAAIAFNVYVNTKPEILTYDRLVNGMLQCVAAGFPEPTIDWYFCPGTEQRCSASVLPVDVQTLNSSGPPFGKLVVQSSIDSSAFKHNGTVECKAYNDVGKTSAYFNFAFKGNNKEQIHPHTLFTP
Assay: ELISA, human CD117, monovalent Fc fusion

Kd	Binder
0.52 nM	B1
1.91 nM	B2
0.97 nM	B3
1 nM	B4

Molecular target: T1, human CD117 on cells (SKMEL-3 cells, …)
Assay: flow cytometry, CD34+ HSC, monomeric Fc

EC50	Binder
4 nM	B1
30 nM	B2
> 50 nM	B3
10 nM	B4

Molecular target: T2, human CD117 ectodomain
Assay: BLI (Octet), biotinylated ectodomain on SA biosensor, 1:1 global fit, monomeric Fc
Source text: Pre-equilibrated streptavidin biosensors (SA, from Sartorius) were coated with biotinylated CD117 ectodomain by dipping the biosensors into wells containing an optimized dilution of human or cyno CD117 ectodomain. After re-equilibrating the biosensor tips in assay buffer, the biosensors were dipped into supernatant containing the VHH antibodies to allow association between the antibodies and the CD117 ectodomain. Finally, the biosensors were dipped into the assay buffer. The VHH antibodies disassociated from the CD117 ectodomain if association occurred. The association and dissociation of each VHH antibody was characterized qualitatively to identify VHHs that could bind both human and cyno CD117 ectodomains.
For example, kinetics parameters of the top VHH antibodies for binding to human CD117 and cynomolgus monkey CD117 ectodomain were obtained from the Octet® analysis by Biolayer Interferometry as described above. A minimum of three concentrations of purified VHH antibodies were tested per ectodomain target. The Octet® software was used to perform a global kinetic fit across all concentrations using a 1:1 binding model. This allowed determination of the kinetic parameters, association rate (kₒₙ), dissociation rate (koff) and equilibrium constant (KD) for the 9 antibodies of interest. Total chi-squared (X²) was also examined to determine the goodness of fit for the software's kinetic model.

Kd	Binder
7.42 nM	B1
2.89 nM	B2
28 nM	B3
8.85 nM	B4

Molecular target: cynomolgus monkey CD117 ectodomain (cynomolgus monkey)
Assay: as above

Kd	Binder
1.62 nM	B1
7.02 nM	B2
25 nM	B3
19 nM	B4

Molecular target: T3, truncated CD117 ectodomain, Domain 1 (UniProt P10721 26-112, limits assumed, biotinylated)
T3 construct: domain: Domain 1; not shown: AviTag
T3 sequence (P10721 26-112 limits assumed): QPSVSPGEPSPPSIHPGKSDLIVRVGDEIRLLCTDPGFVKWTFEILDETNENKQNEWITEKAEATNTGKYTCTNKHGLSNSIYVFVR
Assay: BLI, truncated ectodomain on SA biosensor
Protocol: (§1) To identify the approximate binding epitopes of the VHH antibodies, truncated ectodomains were expressed as fusion polypeptides with an AviTag. Additionally, biotin is added to the protein during expression to allow capture of the material onto Streptavidin-coated (SA) biosensors. SA biosensors (Sartorius) were incubated with one of the truncated ectodomains. Full length CD117 ectodomain was used as a control. […] Except for P29 and P37, all others bind Domains 1-2 and Domains 1-3. Except for P37, all others bind Domains 1-4.

binding result	Binder
no binding	B5
no binding	B6

Molecular target: T4, truncated CD117 ectodomain, Domains 1-4 (UniProt P10721 26-410, limits assumed, biotinylated)
T4 construct: domain: Domains 1-4; not shown: AviTag
T4 sequence (P10721 26-410 limits assumed): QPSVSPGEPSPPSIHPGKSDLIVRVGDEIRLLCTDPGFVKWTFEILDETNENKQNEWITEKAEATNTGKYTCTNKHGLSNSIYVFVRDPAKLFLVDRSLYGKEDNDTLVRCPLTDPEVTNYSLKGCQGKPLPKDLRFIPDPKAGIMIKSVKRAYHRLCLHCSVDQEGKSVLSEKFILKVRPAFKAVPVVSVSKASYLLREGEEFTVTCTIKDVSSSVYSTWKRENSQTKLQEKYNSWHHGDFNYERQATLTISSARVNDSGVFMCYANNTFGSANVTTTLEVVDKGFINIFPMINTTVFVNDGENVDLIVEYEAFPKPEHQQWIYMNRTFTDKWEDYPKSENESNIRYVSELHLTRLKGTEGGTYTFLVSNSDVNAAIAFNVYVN
Assay: BLI, truncated ectodomain on SA biosensor
Protocol: as §1

binding result	Binder
no binding	B6

Molecular target: T5, truncated CD117 ectodomain, Domains 1-2 (UniProt P10721 26-208, limits assumed, biotinylated)
T5 construct: domain: Domains 1-2; not shown: AviTag
T5 sequence (P10721 26-208 limits assumed): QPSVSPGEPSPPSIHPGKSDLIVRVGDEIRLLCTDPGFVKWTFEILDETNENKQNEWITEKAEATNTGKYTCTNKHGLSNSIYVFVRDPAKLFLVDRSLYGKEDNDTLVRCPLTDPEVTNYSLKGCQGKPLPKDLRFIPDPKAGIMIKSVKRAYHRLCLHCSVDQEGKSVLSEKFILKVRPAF
Assay: BLI, truncated ectodomain on SA biosensor
Protocol: as §1

binding result	Binder
no binding	B5
no binding	B6

Molecular target: T6, truncated CD117 ectodomain, Domains 1-3 (UniProt P10721 26-311, limits assumed, biotinylated)
T6 construct: domain: Domains 1-3; not shown: AviTag
T6 sequence (P10721 26-311 limits assumed): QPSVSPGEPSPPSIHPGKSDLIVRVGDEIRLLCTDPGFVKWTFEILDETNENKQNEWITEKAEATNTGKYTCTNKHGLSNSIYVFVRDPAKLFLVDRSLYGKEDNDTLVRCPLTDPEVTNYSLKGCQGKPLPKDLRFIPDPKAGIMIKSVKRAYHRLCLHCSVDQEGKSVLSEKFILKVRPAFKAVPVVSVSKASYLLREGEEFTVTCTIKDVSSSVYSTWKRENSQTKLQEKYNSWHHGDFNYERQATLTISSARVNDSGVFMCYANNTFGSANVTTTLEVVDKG
Assay: BLI, truncated ectodomain on SA biosensor
Protocol: as §1

binding result	Binder
no binding	B5
no binding	B6
